# Experimental data from US20110142842A1, “POLYPEPTIDES” (Medinnova AS, priority 2007, published 2011).
# Target: HLA-A*0201 (human), A*02:0
# Assay: REVEAL MHC binding assay (ProImmune)
binder,measurement,value
"FLYGVILTV (modifications not checked) [Peptide ID 131 … (TCR_TV, modified peptide)]",% Pass/fail control (% of pass/fail control),257
